Results reported in publication PMC12059018 (Nature Communications, 2025).

Target: T1, p53-ZF43 bait (UniProt P04637)
T1 construct: also called p53 bait; source: BHK-21, transfected, in cells
Assay: two-hybrid
Conditions: partners not purified

T1 sequence (P04637 whole entry): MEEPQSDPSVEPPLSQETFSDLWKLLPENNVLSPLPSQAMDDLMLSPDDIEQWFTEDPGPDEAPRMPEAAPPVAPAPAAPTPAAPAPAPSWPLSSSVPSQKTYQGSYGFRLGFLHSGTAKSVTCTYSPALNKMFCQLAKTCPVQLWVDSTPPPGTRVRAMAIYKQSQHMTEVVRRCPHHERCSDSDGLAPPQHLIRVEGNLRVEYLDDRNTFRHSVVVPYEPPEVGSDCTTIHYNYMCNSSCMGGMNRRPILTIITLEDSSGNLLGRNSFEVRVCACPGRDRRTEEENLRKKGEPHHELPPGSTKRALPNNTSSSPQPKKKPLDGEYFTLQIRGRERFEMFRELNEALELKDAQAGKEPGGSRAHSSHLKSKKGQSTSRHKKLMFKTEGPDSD

B1: Nb139-VP64 (parental, NLS-containing fusion) (VHH)
VHH: QVQLQESGGGLVQAGGSLRLSCAASERTFSTYAMGWFRQAPGREREFLAQINWSGTTTYYAESVKDRTTISRDNAKNTVYLEMNNLNADDTGIYFCAAHPQRGWGSTLGWTYWGQGTQVTVSS
notes: also called Nb139[WT]; source: BHK-21, transfected, in cells
B1: binds.
